Measurements from paper PMC8956951 (The Journal of Biological Chemistry, 2022).
Numbering of substitutions follows the chain as printed. Numbers in names are those of the source. Where “and” joins values, the source holds several entries; their conditions need not be identical. Equal entries are not always repeated.

B1: scFv-mutant17 (Y33Q, G103T, S227L) (scFv, V domains shown)
VH: EVKLVESGGGLVLPGGSLRLSCATSGFTFTDYQMTWVRQPPGKALEWLGFIGNKANDYTTEYSASVKGRFTISRDDSQSILYLQMSTLRAEDRATYYCATVYTNYPYFDVWGAGTTVAVSS
VL: QIVLTQSPAIMSASPGEKVTMTCSASSSVSYMHWYQQKSGTSPKIWIYESSKLASGVPVRFSGSGSGTSYSLTISSMEAEDVATYYCQQWSLHPHPLTFGAGTKLELK
B2: scFv-mutant16 (T30W, Y33Q, S227W) (scFv, V domains shown)
VH: B1 VH with T30W, T103G
VL: B1 VL with L92W
B3: scFv-mutant18 (Y33Q, Y105W, H230W) (scFv, V domains shown)
VH: B1 VH with T103G, Y105W
VL: B1 VL with L92S, H95W
B4: scFv-mutant15 (D31L, Y105W, S227W) (scFv, V domains shown)
VH: B1 VH with D31L, Q33Y, T103G, Y105W
VL: B1 VL with L92W
B5: scFv-Mutant9 (S227W) (scFv, V domains shown)
VH: B1 VH with Q33Y, T103G
VL: B1 VL with L92W
B6: scFv double mutant T30W, S227L (scFv, V domains shown)
VH: B1 VH with T30W, Q33Y, T103G
VL: B1 VL
B7: scFv double mutant12 (T30W, S227W) (scFv, V domains shown)
VH: B1 VH with T30W, Q33Y, T103G
VL: B1 VL with L92W
B8: scFv single mutant D31F (scFv, V domains shown)
VH: B1 VH with D31F, Q33Y, T103G
VL: B1 VL with L92S
B9: scFv-Mutant7 (Y105W) (scFv, V domains shown)
VH: B1 VH with Q33Y, T103G, Y105W
VL: B1 VL with L92S
B10: scFv-Mutant1 (T30W) (scFv, V domains shown)
VH: B1 VH with T30W, Q33Y, T103G
VL: B1 VL with L92S
B11: scFv-Mutant8 (S227L) (scFv, V domains shown)
VH: B1 VH with Q33Y, T103G
VL: B1 VL
B12: scFv-Mutant5 (Y33Q) (scFv, V domains shown)
VH: B1 VH with T103G
VL: B1 VL with L92S
B13: scFv double mutant13 (Y33Q, G103T) (scFv, V domains shown)
VH: B1 VH
VL: B1 VL with L92S
B14: scFv-Mutant6 (G103T) (scFv, V domains shown)
VH: B1 VH with Q33Y
VL: B1 VL with L92S
B15: scFv single mutant D31L (scFv, V domains shown)
VH: B1 VH with D31L, Q33Y, T103G
VL: B1 VL with L92S
B16: scFv-mutant16 fused to the GAL4 DNA-binding domain (pGBKT7) (scFv, V domains shown)
VH: B1 VH with T30W, T103G
VL: B1 VL with L92W
B17: scFv-mutant18 fused to the GAL4 DNA-binding domain (pGBKT7) (scFv, V domains shown)
VH: B1 VH with T103G, Y105W
VL: B1 VL with L92S, H95W
B18: scFv-mutant17 fused to the GAL4 DNA-binding domain (pGBKT7) (scFv, V domains shown)
VH: B1 VH
VL: B1 VL
B19: scFv-mutant15 fused to the GAL4 DNA-binding domain (pGBKT7) (scFv, V domains shown)
VH: B1 VH with D31L, Q33Y, T103G, Y105W
VL: B1 VL with L92W

Target: T1, Fu-bc subunit protein (Dengue virus (DENV-2-like E domain II), …)
T1 chain: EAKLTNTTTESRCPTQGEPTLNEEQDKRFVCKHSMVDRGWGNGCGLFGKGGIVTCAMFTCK
Test: BLI
B1 was tested, and the Kd was 31 ± 14 nM. Binder B2 has a Kd of 47 ± 19 nM. Binder B3 has a Kd of 310 ± 35 nM. In the case of B4, the Kd is reported as 21 ± 11 nM.

Target: T1, Fu-bc subunit protein
Test: SPR
B5: binds. B6: binds. Binder B1 has a Kd of 27 ± 11 nM. B7: binds. B2 was tested, and the Kd was 52 ± 17 nM. B8: binds. B9: binds. In the case of B3, the “fold change in affinity against the WT” value is reported as about 7 fold. B10: binds. B11: binds. B12 showed a Kd of 302 ± 15 nM. With B13 the “fold change in affinity against the WT” value was 45 fold. B14: binds. B15: binds. In the case of B4, the Kd is reported as 24 nM and 20 to 52 nM.

Target: T2, Fu-bc fused to the GAL4 activation domain (pGADT7) (Dengue virus (DENV-2-like E domain II), …)
T2 chain: T1 chain
Test: two-hybrid
B16: binds. B17: binds. B18: binds. B19: binds.
